From the supplement of paper PMC10567573

B1: AUP1 (parent)
chain: FCASTRLPPTPLLLFPEEEATNGR
B2: ZNF649 (parent)
chain: LVAHQRYHTGKTPFVCPECGQPCS

Variants of: B1
Assay: protein stability index of a GFP-peptide fusion (GPS, HEK-293T) (PSI 1-6); higher = more stable
Conditions: c terminus: a fixed tail appended
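Also: lentivirally expressed fusions sorted by FACS into six bins by GFP to DsRed ratio, PSI derived from sequencing read proportions per bin multiplied by bin number.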

Protein stability index of substitutions, site by site:
T21: S 2.52; K 3.09; Y 2.65; F 2.28; G 2.68; D 3.35; E 3.68; I 2.79; V 2.7; W 2.15; A 2.6
P8: G 2.66; F 2.43; V 2.41; L 1.96; C 2.08; D 2.92; Y 1.9; H 2.33; W 2.27; Q 3.19; T 2.94; R 2.67; I 2.3
P9: T 2.46; Q 2.62; Y 2.03; E 2.89; I 2.43; H 2.56; N 2.84; M 1.84; A 2.59; D 2.74; S 2.82
E19: Q 2.94; P 2.38; S 2.31; G 2.29; M 2.08; D 2.68; V 2.33; A 2.74; K 2.32; I 2.02; W 1.87
G23: E 3.33; W 1.69; S 2.94; Q 3.09; M 2.54; V 2.91; C 2.65; P 2.75; K 2.62; D 3.33; I 2.19; R 2.59; L 2.67
C2: M 3.73; D 4.81; F 3.1; I 2.62; Q 3.58; V 1.55
P16: Y 2.03; I 1.62; W 2.48; V 1.8; H 2.61; E 3.48; C 2.08; F 2.24; R 2.19; M 2.15; D 3.05; Q 2.6
L13: C 3.01; Y 2.62; H 3.4; T 3.56; S 3.54; D 3.94; R 3.45; N 3.12; A 3.43; E 3.86; V 3.25; F 2.18
R6: W 2.12; M 3.27; V 3.42; D 3.9; A 3.37; L 2.73; I 2.46
T10: D 2.84; I 2.52; Y 1.99; V 2.39; Q 3.13; G 2.53; R 2.87; N 2.92; E 3.23
L14: G 2.66; N 3.61; I 3; E 3.74; A 3.58; S 3.44; V 3.24; C 2.4; D 4.01; T 3.41; Q 3.88
P11: D 2.99; E 3.4; C 2.57; L 1.63; I 2.04; V 2.8; F 2.08; N 2.83; M 2.6; K 2.39; Y 1.91; S 3.05
A20: Y 2.48; W 2.15; E 3.51; T 2.97; H 2.81; G 2.79; Q 2.96; R 2.77
E17: Q 2.28; S 1.8; A 1.96; M 2.51; V 2.09; L 1.5; I 1.93; W 1.7; R 1.96; Y 2.47; F 1.83; T 1.62; G 2.31; K 2.25
T5: Y 2.27; K 2.64; S 2.64; L 2.11; P 3.16; G 2.7; M 2.96; H 2.66; R 1.99; F 1.81; A 3.19
F15: Q 3.35; M 3.12; Y 2.61; W 2.68; N 3.44; C 2.61; H 3.34; G 3.24; T 3.74; K 3.11
N22: L 2.19; H 2.95; G 2.16; Q 3.18; A 2.87; W 2.27; C 2.32
R24: I 2.46; L 2.09; K 3.12; H 2.76; M 2.38; N 3.01; P 3; A 3.27; Q 2.98; G 3.69; V 2.85; W 1.34; F 2.39; S 3.01
A3: M 2.88; Q 2.88; V 2.76; E 3.67; P 2.25; K 2.5; I 2.46; L 3.27; N 2.62; F 2.45
E18: A 2.19; P 2.15; M 1.94; T 2.2; G 2.54; W 1.73; Q 2.72; S 2.12
S4: K 3.01; R 3.03; L 2.85; I 2.49; Q 3.36; W 3.38; E 3.52; C 2.54; Y 2.28; N 2.94
F1: I 4.27; Y 3; E 4.65; L 3.9; N 4.16; S 4.3; Q 4.54; T 4.6
L12: F 3.16; M 3.25; K 3.6; I 2.58; W 2.77; Y 1.97; N 3.35; Q 3.7; H 2.87; S 3.47; C 2.95
L7: Q 3.16; M 3; R 2.63; W 1.51

Variants of: B2
Assay: as above
Conditions: c terminus: a fixed tail appended

Protein stability index: each site, then its substitutions
L1: A 3.76; C 4.67; D 3.6; E 4.06; F 2.57; G 3.67; H 3.48; I 2.95; K 3.65; M 3.25; N 4.24; P 4.28; Q 3.87; R 3.63; S 4.24; T 3.93; V 3.35; W 2.46; Y 1.22
V2: A 3.28; C 4.4; D 3.87; E 4.4; F 2.78; G 3.81; H 4.09; I 3.1; K 2.91; L 3.09; M 3.34; N 3.39; P 3.5; Q 3.62; R 3.36; S 3.49; T 4.06; W 2.57; Y 2.81
A3: C 4.11; D 4.3; E 4.14; F 2.23; G 3.68; H 3.59; I 3.32; K 3.41; L 2.69; M 2.71; N 2.71; P 3.24; Q 3.68; R 3.14; S 3.58; T 3.47; V 2.46; W 2.57; Y 2.38
H4: A 3.02; C 4.02; D 3.98; E 3.31; F 2.76; G 3.42; I 2.26; K 2.49; L 1.81; M 2.76; N 3.33; P 3.4; Q 3.61; R 2.77; S 2.87; T 3.17; V 2.97; W 2.72; Y 2.64
Q5: A 3.22; C 2.86; D 3.74; E 4.17; F 1.95; G 2.98; H 3.11; I 3.78; K 3.03; L 2.05; M 2.24; N 3.15; P 3.32; R 3.06; S 3.14
